Starred links: 1 amine or outer side, 2 acyl side, 3 side chain; linkers in the order of their positions; H or OH if unused. Non-standard residues stand in square brackets, D forms with d. *: point of attachment. dBip = N[C@H](Cc1ccc(-c2ccccc2)cc1)C(=O)O; Oic = O=C(O)[C@@H]1C[C@@H]2CCCC[C@@H]2N1; Phe(4-I) = N[C@@H](Cc1ccc(I)cc1)C(=O)O; γGlu = O=C(O)[C@H](CCC(=O)[*:2])N[*:1]; Tridecanoyl = CCCCCCCCCCCCC(=O)*; hArg = N=C(N)NCCCC[C@H](N)C(=O)O; NMeL = CN[C@@H](CC(C)C)C(=O)O; Nle = CCCC[C@H](N)C(=O)O; AEEA = NCCOCCOCC(=O)O
T1: human APJ receptor (human, UniProt P35414 1-380)
T1 sequence (looked up): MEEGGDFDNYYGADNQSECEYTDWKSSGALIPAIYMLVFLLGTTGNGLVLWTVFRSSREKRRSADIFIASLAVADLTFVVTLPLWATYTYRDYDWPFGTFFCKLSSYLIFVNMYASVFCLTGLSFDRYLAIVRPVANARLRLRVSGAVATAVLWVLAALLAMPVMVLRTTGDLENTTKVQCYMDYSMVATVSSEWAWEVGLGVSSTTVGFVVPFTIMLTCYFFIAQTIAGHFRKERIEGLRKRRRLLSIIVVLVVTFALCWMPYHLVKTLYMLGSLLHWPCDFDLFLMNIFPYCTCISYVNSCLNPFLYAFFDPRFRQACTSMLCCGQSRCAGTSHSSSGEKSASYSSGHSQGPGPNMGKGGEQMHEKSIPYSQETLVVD

T2: rat APJ receptor (rat, UniProt Q9JHG3 1-377)
T2 sequence (looked up): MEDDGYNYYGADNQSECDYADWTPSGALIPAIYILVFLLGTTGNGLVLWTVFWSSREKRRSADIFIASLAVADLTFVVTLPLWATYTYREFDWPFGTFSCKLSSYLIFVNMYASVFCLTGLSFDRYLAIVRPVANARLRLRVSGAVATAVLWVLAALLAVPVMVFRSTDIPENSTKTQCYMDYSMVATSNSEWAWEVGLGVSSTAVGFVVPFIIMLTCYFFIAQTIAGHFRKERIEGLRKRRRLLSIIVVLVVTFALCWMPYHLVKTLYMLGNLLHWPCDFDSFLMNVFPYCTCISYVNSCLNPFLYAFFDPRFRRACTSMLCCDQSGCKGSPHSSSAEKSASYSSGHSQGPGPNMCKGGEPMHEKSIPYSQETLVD

B1: SEQ ID NO: 317 (peptide)
peptide: Tridecanoyl-[γGlu][AEEA][AEEA][hArg][dR]Q[hArg]P[Nle][NMeL]AHKG[Oic][Phe(4-I)]P[dBip]-OH
SMILES: CCCCCCCCCCCCC(=O)N[C@@H](CCC(=O)NCCOCCOCC(=O)NCCOCCOCC(=O)N[C@@H](CCCCNC(=N)N)C(=O)N[C@H](CCCNC(=N)N)C(=O)N[C@@H](CCC(N)=O)C(=O)N[C@@H](CCCCNC(=N)N)C(=O)N1CCC[C@H]1C(=O)N[C@@H](CCCC)C(=O)N(C)[C@@H](CC(C)C)C(=O)N[C@@H](C)C(=O)N[C@@H](Cc1c[nH]cn1)C(=O)N[C@@H](CCCCN)C(=O)NCC(=O)N1[C@H](C(=O)N[C@@H](Cc2ccc(I)cc2)C(=O)N2CCC[C@H]2C(=O)N[C@H](Cc2ccc(-c3ccccc3)cc2)C(=O)O)C[C@@H]2CCCC[C@@H]21)C(=O)O
B2: SEQ ID NO: 323 (peptide)
peptide: Tridecanoyl-[γGlu][AEEA][AEEA][hArg][dR]Q[hArg]P[Nle][NMeL]SAKG[Oic][Phe(4-I)]P[dBip]-OH
SMILES: CCCCCCCCCCCCC(=O)N[C@@H](CCC(=O)NCCOCCOCC(=O)NCCOCCOCC(=O)N[C@@H](CCCCNC(=N)N)C(=O)N[C@H](CCCNC(=N)N)C(=O)N[C@@H](CCC(N)=O)C(=O)N[C@@H](CCCCNC(=N)N)C(=O)N1CCC[C@H]1C(=O)N[C@@H](CCCC)C(=O)N(C)[C@@H](CC(C)C)C(=O)N[C@@H](CO)C(=O)N[C@@H](C)C(=O)N[C@@H](CCCCN)C(=O)NCC(=O)N1[C@H](C(=O)N[C@@H](Cc2ccc(I)cc2)C(=O)N2CCC[C@H]2C(=O)N[C@H](Cc2ccc(-c3ccccc3)cc2)C(=O)O)C[C@@H]2CCCC[C@@H]21)C(=O)O
B3: SEQ ID NO: 329 (peptide)
peptide: Tridecanoyl-[γGlu][AEEA][AEEA][hArg][dR]Q[hArg]P[Nle][NMeL]AAKG[Oic][Phe(4-I)]P[dBip]-OH
SMILES: CCCCCCCCCCCCC(=O)N[C@@H](CCC(=O)NCCOCCOCC(=O)NCCOCCOCC(=O)N[C@@H](CCCCNC(=N)N)C(=O)N[C@H](CCCNC(=N)N)C(=O)N[C@@H](CCC(N)=O)C(=O)N[C@@H](CCCCNC(=N)N)C(=O)N1CCC[C@H]1C(=O)N[C@@H](CCCC)C(=O)N(C)[C@@H](CC(C)C)C(=O)N[C@@H](C)C(=O)N[C@@H](C)C(=O)N[C@@H](CCCCN)C(=O)NCC(=O)N1[C@H](C(=O)N[C@@H](Cc2ccc(I)cc2)C(=O)N2CCC[C@H]2C(=O)N[C@H](Cc2ccc(-c3ccccc3)cc2)C(=O)O)C[C@@H]2CCCC[C@@H]21)C(=O)O
B4: SEQ ID NO: 319 (peptide)
peptide: Tridecanoyl-[γGlu][AEEA][AEEA][hArg][dR]Q[hArg]PK[NMeL]AH[Nle]G[Oic][Phe(4-I)]P[dBip]-OH
SMILES: CCCCCCCCCCCCC(=O)N[C@@H](CCC(=O)NCCOCCOCC(=O)NCCOCCOCC(=O)N[C@@H](CCCCNC(=N)N)C(=O)N[C@H](CCCNC(=N)N)C(=O)N[C@@H](CCC(N)=O)C(=O)N[C@@H](CCCCNC(=N)N)C(=O)N1CCC[C@H]1C(=O)N[C@@H](CCCCN)C(=O)N(C)[C@@H](CC(C)C)C(=O)N[C@@H](C)C(=O)N[C@@H](Cc1c[nH]cn1)C(=O)N[C@@H](CCCC)C(=O)NCC(=O)N1[C@H](C(=O)N[C@@H](Cc2ccc(I)cc2)C(=O)N2CCC[C@H]2C(=O)N[C@H](Cc2ccc(-c3ccccc3)cc2)C(=O)O)C[C@@H]2CCCC[C@@H]21)C(=O)O
B5: SEQ ID NO: 313 (peptide)
peptide: Tridecanoyl-[γGlu][AEEA][AEEA][hArg][dR]Q[hArg]PK[NMeL]SH[Nle]G[Oic][Phe(4-I)]P[dBip]-OH
SMILES: CCCCCCCCCCCCC(=O)N[C@@H](CCC(=O)NCCOCCOCC(=O)NCCOCCOCC(=O)N[C@@H](CCCCNC(=N)N)C(=O)N[C@H](CCCNC(=N)N)C(=O)N[C@@H](CCC(N)=O)C(=O)N[C@@H](CCCCNC(=N)N)C(=O)N1CCC[C@H]1C(=O)N[C@@H](CCCCN)C(=O)N(C)[C@@H](CC(C)C)C(=O)N[C@@H](CO)C(=O)N[C@@H](Cc1c[nH]cn1)C(=O)N[C@@H](CCCC)C(=O)NCC(=O)N1[C@H](C(=O)N[C@@H](Cc2ccc(I)cc2)C(=O)N2CCC[C@H]2C(=O)N[C@H](Cc2ccc(-c3ccccc3)cc2)C(=O)O)C[C@@H]2CCCC[C@@H]21)C(=O)O
B6: SEQ ID NO: 318 (peptide)
peptide: Tridecanoyl-[γGlu][AEEA][AEEA][hArg][dR]Q[hArg]P[dR][NMeL]AH[Nle]G[Oic][Phe(4-I)]P[dBip]-OH
SMILES: CCCCCCCCCCCCC(=O)N[C@@H](CCC(=O)NCCOCCOCC(=O)NCCOCCOCC(=O)N[C@@H](CCCCNC(=N)N)C(=O)N[C@H](CCCNC(=N)N)C(=O)N[C@@H](CCC(N)=O)C(=O)N[C@@H](CCCCNC(=N)N)C(=O)N1CCC[C@H]1C(=O)N[C@H](CCCNC(=N)N)C(=O)N(C)[C@@H](CC(C)C)C(=O)N[C@@H](C)C(=O)N[C@@H](Cc1c[nH]cn1)C(=O)N[C@@H](CCCC)C(=O)NCC(=O)N1[C@H](C(=O)N[C@@H](Cc2ccc(I)cc2)C(=O)N2CCC[C@H]2C(=O)N[C@H](Cc2ccc(-c3ccccc3)cc2)C(=O)O)C[C@@H]2CCCC[C@@H]21)C(=O)O
B7: SEQ ID NO: 330 (peptide)
peptide: Tridecanoyl-[γGlu][AEEA][AEEA][hArg][dR]Q[hArg]P[dR][NMeL]AA[Nle]G[Oic][Phe(4-I)]P[dBip]-OH
SMILES: CCCCCCCCCCCCC(=O)N[C@@H](CCC(=O)NCCOCCOCC(=O)NCCOCCOCC(=O)N[C@@H](CCCCNC(=N)N)C(=O)N[C@H](CCCNC(=N)N)C(=O)N[C@@H](CCC(N)=O)C(=O)N[C@@H](CCCCNC(=N)N)C(=O)N1CCC[C@H]1C(=O)N[C@H](CCCNC(=N)N)C(=O)N(C)[C@@H](CC(C)C)C(=O)N[C@@H](C)C(=O)N[C@@H](C)C(=O)N[C@@H](CCCC)C(=O)NCC(=O)N1[C@H](C(=O)N[C@@H](Cc2ccc(I)cc2)C(=O)N2CCC[C@H]2C(=O)N[C@H](Cc2ccc(-c3ccccc3)cc2)C(=O)O)C[C@@H]2CCCC[C@@H]21)C(=O)O
B8: SEQ ID NO: 311 (peptide)
peptide: Tridecanoyl-[γGlu][AEEA][AEEA][hArg][dR]Q[hArg]P[Nle][NMeL]SHKG[Oic][Phe(4-I)]P[dBip]-OH
SMILES: CCCCCCCCCCCCC(=O)N[C@@H](CCC(=O)NCCOCCOCC(=O)NCCOCCOCC(=O)N[C@@H](CCCCNC(=N)N)C(=O)N[C@H](CCCNC(=N)N)C(=O)N[C@@H](CCC(N)=O)C(=O)N[C@@H](CCCCNC(=N)N)C(=O)N1CCC[C@H]1C(=O)N[C@@H](CCCC)C(=O)N(C)[C@@H](CC(C)C)C(=O)N[C@@H](CO)C(=O)N[C@@H](Cc1c[nH]cn1)C(=O)N[C@@H](CCCCN)C(=O)NCC(=O)N1[C@H](C(=O)N[C@@H](Cc2ccc(I)cc2)C(=O)N2CCC[C@H]2C(=O)N[C@H](Cc2ccc(-c3ccccc3)cc2)C(=O)O)C[C@@H]2CCCC[C@@H]21)C(=O)O
B9: SEQ ID NO: 325 (peptide)
peptide: Tridecanoyl-[γGlu][AEEA][AEEA][hArg][dR]Q[hArg]PK[NMeL]SA[Nle]G[Oic][Phe(4-I)]P[dBip]-OH
SMILES: CCCCCCCCCCCCC(=O)N[C@@H](CCC(=O)NCCOCCOCC(=O)NCCOCCOCC(=O)N[C@@H](CCCCNC(=N)N)C(=O)N[C@H](CCCNC(=N)N)C(=O)N[C@@H](CCC(N)=O)C(=O)N[C@@H](CCCCNC(=N)N)C(=O)N1CCC[C@H]1C(=O)N[C@@H](CCCCN)C(=O)N(C)[C@@H](CC(C)C)C(=O)N[C@@H](CO)C(=O)N[C@@H](C)C(=O)N[C@@H](CCCC)C(=O)NCC(=O)N1[C@H](C(=O)N[C@@H](Cc2ccc(I)cc2)C(=O)N2CCC[C@H]2C(=O)N[C@H](Cc2ccc(-c3ccccc3)cc2)C(=O)O)C[C@@H]2CCCC[C@@H]21)C(=O)O
B10: SEQ ID NO: 331 (peptide)
peptide: Tridecanoyl-[γGlu][AEEA][AEEA][hArg][dR]Q[hArg]PK[NMeL]AA[Nle]G[Oic][Phe(4-I)]P[dBip]-OH
SMILES: CCCCCCCCCCCCC(=O)N[C@@H](CCC(=O)NCCOCCOCC(=O)NCCOCCOCC(=O)N[C@@H](CCCCNC(=N)N)C(=O)N[C@H](CCCNC(=N)N)C(=O)N[C@@H](CCC(N)=O)C(=O)N[C@@H](CCCCNC(=N)N)C(=O)N1CCC[C@H]1C(=O)N[C@@H](CCCCN)C(=O)N(C)[C@@H](CC(C)C)C(=O)N[C@@H](C)C(=O)N[C@@H](C)C(=O)N[C@@H](CCCC)C(=O)NCC(=O)N1[C@H](C(=O)N[C@@H](Cc2ccc(I)cc2)C(=O)N2CCC[C@H]2C(=O)N[C@H](Cc2ccc(-c3ccccc3)cc2)C(=O)O)C[C@@H]2CCCC[C@@H]21)C(=O)O

Molecular target: T1, human APJ receptor
Assay: cell-based or functional assay

Row | EC50 Human APJ Receptor [nM] | Binder
1 | 56.8 | B1
2 | 2.51 | B2
3 | 37.5 | B3
4 | 73.2 | B4
5 | 14.8 | B5
6 | 7.44 | B6
7 | 39.7 | B7
8 | 34.7 | B8
9 | 3.96 | B9
10 | 24.7 | B10

Molecular target: T2, rat APJ receptor
Assay: cell-based or functional assay

Row | EC50 Rat APJ Receptor [nM] | Binder
11 | 63.9 | B1
12 | 5.29 | B2
13 | 36.1 | B3
14 | 63.1 | B4
15 | 10.4 | B5
16 | 45.9 | B6
17 | 56.1 | B7
18 | 37.4 | B8
19 | 4.76 | B9
20 | 18.1 | B10
